Values quoted from earlier work as cited in paper PMC5342242.
Where two headings read alike, the source gives them in different places.

Key:
[1] = target: DNA pol III alpha 917-1160 (Escherichia coli) (UniProt P10443)
[2] = target: DNA polymerase III α subunit (Escherichia coli) (UniProt P10443); assay: tryptophan fluorescence
[3] = target: DNA polymerase III α subunit 917-1160 (Escherichia coli) (UniProt P10443); assay: tryptophan fluorescence
[4] = target: DNA polymerase III α subunit 1-280 (Escherichia coli) (UniProt P10443); assay: tryptophan fluorescence
Chain of DNA polymerase III α subunit 1-280 (Escherichia coli) (P10443 1-280): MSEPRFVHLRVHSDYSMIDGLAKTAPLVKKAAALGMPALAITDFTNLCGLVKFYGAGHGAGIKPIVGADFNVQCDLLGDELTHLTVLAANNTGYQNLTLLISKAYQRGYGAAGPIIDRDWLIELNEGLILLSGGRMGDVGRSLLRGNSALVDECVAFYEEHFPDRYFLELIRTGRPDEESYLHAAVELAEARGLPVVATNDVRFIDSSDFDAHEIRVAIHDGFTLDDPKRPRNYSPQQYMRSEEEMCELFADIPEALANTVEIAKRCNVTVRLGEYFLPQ

[5] = target: DNA pol III alpha 917-1160 (Escherichia coli) (UniProt P10443); remark: listed apart in the source
[6] = target: DNA pol III alpha (Escherichia coli) (UniProt P10443)
Chain of DNA pol III alpha (Escherichia coli) (P10443 whole entry): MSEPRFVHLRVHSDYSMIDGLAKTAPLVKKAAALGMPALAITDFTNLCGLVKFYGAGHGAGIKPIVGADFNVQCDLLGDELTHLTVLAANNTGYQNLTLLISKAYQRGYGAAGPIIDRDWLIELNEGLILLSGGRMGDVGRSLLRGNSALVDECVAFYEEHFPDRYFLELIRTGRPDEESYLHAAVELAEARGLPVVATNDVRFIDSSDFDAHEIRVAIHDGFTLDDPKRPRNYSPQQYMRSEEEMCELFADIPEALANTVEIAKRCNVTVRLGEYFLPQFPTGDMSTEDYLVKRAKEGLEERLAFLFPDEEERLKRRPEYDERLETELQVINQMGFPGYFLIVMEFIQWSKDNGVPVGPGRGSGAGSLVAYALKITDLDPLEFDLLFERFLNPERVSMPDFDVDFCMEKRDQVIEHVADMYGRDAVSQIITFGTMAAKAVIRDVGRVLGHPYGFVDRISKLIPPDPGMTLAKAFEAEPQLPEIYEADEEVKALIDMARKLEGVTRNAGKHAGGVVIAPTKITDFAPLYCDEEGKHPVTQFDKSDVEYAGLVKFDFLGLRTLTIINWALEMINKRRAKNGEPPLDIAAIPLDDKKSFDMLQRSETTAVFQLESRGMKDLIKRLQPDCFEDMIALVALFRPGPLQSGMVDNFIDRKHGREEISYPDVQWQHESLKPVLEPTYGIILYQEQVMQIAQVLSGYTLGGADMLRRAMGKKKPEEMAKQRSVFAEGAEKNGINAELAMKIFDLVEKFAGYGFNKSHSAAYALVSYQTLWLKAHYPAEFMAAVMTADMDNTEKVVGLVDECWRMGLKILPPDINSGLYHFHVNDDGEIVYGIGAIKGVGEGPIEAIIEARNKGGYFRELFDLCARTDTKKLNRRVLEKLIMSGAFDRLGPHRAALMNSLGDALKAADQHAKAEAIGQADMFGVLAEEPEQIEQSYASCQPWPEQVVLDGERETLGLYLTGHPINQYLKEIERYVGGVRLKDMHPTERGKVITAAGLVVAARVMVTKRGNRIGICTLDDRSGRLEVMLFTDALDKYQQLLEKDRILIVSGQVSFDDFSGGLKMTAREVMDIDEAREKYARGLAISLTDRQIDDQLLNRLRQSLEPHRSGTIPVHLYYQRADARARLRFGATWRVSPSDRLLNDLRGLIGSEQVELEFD

[7] = target: DNA pol III alpha 1-280 (Escherichia coli) (UniProt P10443)
Chain of DNA pol III alpha 1-280 (Escherichia coli) (P10443 1-280): as the sequence (P10443 1-280) above

Chain of UmuD (P0AG11 25-139): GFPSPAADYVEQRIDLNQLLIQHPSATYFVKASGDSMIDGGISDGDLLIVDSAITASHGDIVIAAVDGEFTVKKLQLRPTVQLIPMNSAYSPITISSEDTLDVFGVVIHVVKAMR
Chain of UmuD' (P0AG11 25-139): as above
Chain of DNA polymerase III α subunit (Escherichia coli) (P10443 whole entry): as the sequence (P10443 whole entry) above
Chain of DNA polymerase III α subunit 917-1160 (Escherichia coli) (P10443 917-1160): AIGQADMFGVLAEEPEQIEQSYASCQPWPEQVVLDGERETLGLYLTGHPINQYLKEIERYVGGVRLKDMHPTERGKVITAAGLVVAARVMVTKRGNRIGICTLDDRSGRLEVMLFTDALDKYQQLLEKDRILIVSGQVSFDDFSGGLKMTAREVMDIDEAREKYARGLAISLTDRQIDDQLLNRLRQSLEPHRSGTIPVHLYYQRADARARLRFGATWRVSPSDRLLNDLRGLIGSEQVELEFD
Chain of DNA pol III alpha 917-1160 (Escherichia coli) (P10443 917-1160): as above

**Q.** For UmuD (from UniProt P0AG11), which Kd [1] is on record?
**A.** 0.7 µM

**Q.** What about the Kd [2] of the same substance?
**A.** 1.1 µM

**Q.** What about the Kd [3] of the same substance?
**A.** 13.9 µM

**Q.** And the Kd [4]?
**A.** 7.3 µM

**Q.** For UmuD S60A (from UniProt P0AG11), which Kd [2] is on record?
**A.** 10.6 µM

**Q.** What about the Kd [3] of the same substance?
**A.** 0.7 µM

**Q.** And the Kd [4]?
**A.** 10.3 µM

**Q.** Which Kd [2] does the source give for UmuD 3A (from UniProt P0AG11) here?
**A.** 8.7 µM

**Q.** And the Kd [3]?
**A.** 3.4 µM

**Q.** What about the Kd [4] of the same substance?
**A.** 9.3 µM

**Q.** Which Kd [5] does the source give for UmuD' (from UniProt P0AG11) here?
**A.** 3.8 µM

**Q.** And the Kd [6]?
**A.** 10.9 µM

**Q.** And the Kd [7]?
**A.** 8.6 µM
